Molecular target: APP695 with C-terminal dilysine and the mutation KM-DA594-597 to SYEA594-597, expressed in HEK 293 derivative cells, P05067
Sequence (P05067 whole entry, looked up, change not shown, tested part not stated): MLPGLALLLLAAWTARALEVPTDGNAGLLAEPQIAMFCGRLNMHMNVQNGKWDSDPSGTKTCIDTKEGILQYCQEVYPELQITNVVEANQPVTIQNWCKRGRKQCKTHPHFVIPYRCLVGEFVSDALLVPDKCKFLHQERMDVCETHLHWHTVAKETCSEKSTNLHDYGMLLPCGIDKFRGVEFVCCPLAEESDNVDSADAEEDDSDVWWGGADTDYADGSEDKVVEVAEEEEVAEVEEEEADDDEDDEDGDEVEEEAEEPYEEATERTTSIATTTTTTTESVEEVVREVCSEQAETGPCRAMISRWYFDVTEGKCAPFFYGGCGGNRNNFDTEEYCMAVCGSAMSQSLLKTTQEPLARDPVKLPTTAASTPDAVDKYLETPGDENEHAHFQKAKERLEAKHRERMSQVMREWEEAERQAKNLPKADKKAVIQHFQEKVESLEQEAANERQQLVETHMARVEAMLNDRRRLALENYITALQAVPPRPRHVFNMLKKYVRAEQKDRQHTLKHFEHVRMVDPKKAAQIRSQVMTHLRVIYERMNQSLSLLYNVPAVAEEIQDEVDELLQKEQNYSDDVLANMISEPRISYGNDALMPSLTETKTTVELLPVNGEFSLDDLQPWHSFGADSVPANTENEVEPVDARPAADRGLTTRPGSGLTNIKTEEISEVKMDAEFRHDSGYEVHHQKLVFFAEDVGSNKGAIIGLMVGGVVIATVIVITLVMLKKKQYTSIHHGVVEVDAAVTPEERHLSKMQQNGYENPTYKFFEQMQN

B1: Hu-Asp2 expressed in a stable HEK-293 derivative cell line that expresses higher levels of Hu-Asp2 (protein)
chain: ETDEEPEEPGRRGSFVEMVDNLRGKSGQGYYVEMTVGSPPQTLNILVDTGSSNFAVGAAPHPFLHRYYQRQLSSTYRDLRKGVYVPYTQGKWEGELGTDLVSIPHGPNVTVRANIAAITESDKFFINGSNWEGILGLAYAEIARPDDSLEPFFDSLVKQTHVPNLFSLHLCGAGFPLNQSEVLASVGGSMIIGGIDHSLYTGSLWYTPIRREWYYEVIIVRVEINGQDLKMDCKEYNYDKSIVDSGTTNLRLPKKVFEAAVKSIKAASSTEKFPDGFWLGEQLVCWQAGTTPWNIFPVISLYLMGEVTNQSFRITILPQQYLRPVEDVATSQDDCYKFAISQSSTGTVMGAVIMEGFYVVFDRARKRIGFAVSACHVHDEFRTAAVEGPFVTLDMEDCGYNIPQTDESTLMTIAYVMAAICALFMLPLCLMVCQWRCLRCLRQQHDDFADDISLLK
For B1, the “β-secretase cleavage product CTF-99, Western blot with antibody C8” value was “both mutant APP variants were proficiently cleaved by Asp2”.

Reference: patent publication US20040254341
